Experiments:
SARS-CoV-2 N CTD+IDR [1] = target: T1, SARS-CoV-2 N CTD+IDR (SARS-CoV-2, UniProt P0DTC9 250-419); assay: BLI; BLI (Octet RED96e, SSA sensors, biotinylated RNA immobilised): PBS, 0.02% Tween 20, 25 C; pH not stated; 1:1 kinetic fit; details: protein: recombinant, tags: 6xHis-SUMO tag removed by Ulp1, chain copies: 2
SARS-CoV-2 N LKR+CTD [2] = target: T2, SARS-CoV-2 N LKR+CTD (SARS-CoV-2, UniProt P0DTC9 183-365); assay: as above; details: protein: recombinant; tags: 6xHis-SUMO tag removed by Ulp1; chain copies: 2; label: 5' biotin
SARS-CoV-2 N-CTD = SARS-CoV-2 N-CTD (SARS-CoV-2, UniProt P0DTC9 250-365); assay: BLI; details: protein: recombinant; tags: 6xHis-SUMO tag removed by Ulp1; chain copies: 2; label: 5' biotin
SARS-CoV-2 N CTD+IDR [3] = target: T1, SARS-CoV-2 N CTD+IDR; assay: BLI; value order as in text ('respectively'); BLI (Octet RED96e, SSA sensors, biotinylated RNA immobilised): PBS, 0.02% Tween 20, 25 C; pH not stated; 1:1 kinetic fit; details: protein: recombinant; tags: 6xHis-SUMO tag removed by Ulp1; chain copies: 2; label: 5' biotin
SARS-CoV-2 N LKR+CTD [4] = target: T2, SARS-CoV-2 N LKR+CTD; assay: as above; details: protein: recombinant; tags: 6xHis-SUMO tag removed by Ulp1; chain copies: 2; label: 5' biotin

B1: Duplex TRS-1 (RNA1/RNA4) (dsRNA)
RNA 1: ACGAAC
RNA 2: GUUCGU
Kd (SARS-CoV-2 N CTD+IDR [1]; blunt, 6 bp): 29 µM

B2: Unpaired Duplex TRS-2 (RNA2/RNA4) (dsRNA)
RNA 1: AAACGAAC
RNA 2: GUUCGU
Kd (SARS-CoV-2 N CTD+IDR [1]; 5' overhang 2 nt (AA) on strand 1 per Methods): 33 µM

AAACGAAC (ssRNA) [TRS-2 (RNA2)]
Kd (SARS-CoV-2 N CTD+IDR [1]; label: 5' biotin): 9.1 µM | Kd (SARS-CoV-2 N LKR+CTD [2]): 17 µM | Kd (SARS-CoV-2 N-CTD): 180 µM

ACGAAC (ssRNA) [TRS-1 (RNA1)]
Kd (SARS-CoV-2 N CTD+IDR [3]): 33 µM | Kd (SARS-CoV-2 N LKR+CTD [4]): 14 µM | Kd (SARS-CoV-2 N-CTD): 320 µM

B3: Unpaired Duplex TRS-1 (RNA1/RNA5, TRS1-cTRS2) (dsRNA)
RNA 1: ACGAAC
RNA 2: GUUCGUUU
Kd (SARS-CoV-2 N CTD+IDR [1]; 3' overhang 2 nt (UU) on strand 2): 23 µM

B4: Duplex TRS-2 (RNA2/RNA5) (dsRNA)
RNA 1: AAACGAAC
RNA 2: GUUCGUUU
Kd (SARS-CoV-2 N CTD+IDR [1]; blunt, 8 bp): 18 µM

B5: Duplex TRS-3 (RNA3/RNA6) (dsRNA)
RNA 1: AAACGAACUU
RNA 2: AAGUUCGUUU
Kd (SARS-CoV-2 N CTD+IDR [1]; blunt, 10 bp): 11 µM

AAACGAACUU (ssRNA) [TRS-3 (RNA3)]
Kd (SARS-CoV-2 N CTD+IDR [1]; label: 5' biotin): 5.9 µM | Kd (SARS-CoV-2 N LKR+CTD [2]): 61 µM | Kd (SARS-CoV-2 N-CTD): 150 µM

— PMC7835709, “Structural Insight Into the SARS-CoV-2 Nucleocapsid Protein C-Terminal Domain Reveals a Novel Recognition Mechanism for Viral Transcriptional Regulatory Sequences”
